Data from FireProtDB (doi:10.1021/bi027116n).
Values joined by “and” are separate entries in the source; they are usually repeats but may differ in a detail not shown here. Equal values may be shown once.

Conditions: Aquifex aeolicus (strain VF5), reversible: no, whole UniProt chain shown; for denaturant midpoint (higher = more stable): 20 °C, GdnHCl

B1: 2Fe-2S ferredoxin-5 wild type, P59799 (protein)
chain: MPKVIVANINAEFEGIENETIMQILYRNGIEIDSACGGHGQCTSCKVLIISGSENLYPAEFEEKDTLEENGMDPETERLSCQAKLNGKGDVVIYLP
denaturant midpoint (higher = more stable) (pH 4, Absorbance, citric acid-NaH2PO4): 3.2 M
denaturant midpoint (higher = more stable) (pH 4, Emission, citric acid-NaH2PO4): 3.2 M
denaturant midpoint (higher = more stable) (pH 5, Absorbance, Unknown): 6.7 M
denaturant midpoint (higher = more stable) (pH 5, CD, Unknown): 6.7 M
denaturant midpoint (higher = more stable) (pH 5, Emission, Unknown): 6.9 M
denaturant midpoint (higher = more stable) (pH 10, Absorbance, Glycine-OH): 7.5 M and 7.1 M
denaturant midpoint (higher = more stable) (pH 10, CD, Glycine-OH): 7 M
denaturant midpoint (higher = more stable) (pH 10, CD, glycine-OH): 6.6 M and 6.3 M and 6.1 M
denaturant midpoint (higher = more stable) (pH 10, Emission, Glycine-OH): 7 M
denaturant midpoint (higher = more stable) (pH 10, Emission, glycine-OH): 6.5 M and 6.1 M
Tm (pH 10, Thermal, Absorbance, Glycine-OH): 116 °C
denaturant midpoint (higher = more stable) (pH 11, CD, NaHCO3-NaOH): 6.2 M
denaturant midpoint (higher = more stable) (pH 11, Emission, NaHCO3-NaOH): 6.2 M
